Reference: patent US10369187B2, “Peptide regulators of JNK family kinases” (Vanderbilt University, priority 2017, dated 2019)
Entries after “also recorded” stand apart in the source; their conditions may differ.

Assays:
[1] = target: T1, MKK7 (Homo sapiens, UniProt O14733); assay: MBP pull-down of purified MKK7; format: binding; details: purified GST-MKK7; peptide as MBP-fusion immobilized on amylose
T1 sequence (O14733 1-419): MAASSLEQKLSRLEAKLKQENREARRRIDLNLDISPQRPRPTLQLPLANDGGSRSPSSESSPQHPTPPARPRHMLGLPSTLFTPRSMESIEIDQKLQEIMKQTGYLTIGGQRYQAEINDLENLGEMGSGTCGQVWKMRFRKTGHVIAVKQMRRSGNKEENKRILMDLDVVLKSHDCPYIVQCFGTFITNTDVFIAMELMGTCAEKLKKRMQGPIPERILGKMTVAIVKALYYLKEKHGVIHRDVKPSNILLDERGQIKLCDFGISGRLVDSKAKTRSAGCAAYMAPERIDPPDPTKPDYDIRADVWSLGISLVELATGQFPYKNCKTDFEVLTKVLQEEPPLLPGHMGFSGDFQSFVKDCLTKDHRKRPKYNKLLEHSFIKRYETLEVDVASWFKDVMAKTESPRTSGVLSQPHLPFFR
Experimental: (§1) T1A was expressed in E. coli as an MBP-fusion and purified it on an amylose column^23. The ability of purified GST-MKK4 or GST-MKK7 (FIG. 1A) to bind MBP-T1A immobilized on an amylose column was tested in an in vitro pull-down assay, where MBP and MBP-arrestin-3 served as negative and positive controls, respectively (FIG. 1B). MBP-T1A, but not control MBP, effectively retained both kinases (FIG. 1B). […] Next, it was tested whether T1A binds the uppermost kinase in the cascade, ASK1. Because ASK1 is not available in purified form, HA-tagged ASK1 and YFP-tagged T1A (using YFP as a control) were co-expressed in COS7 cells, lysed the cells, and immunoprecipitated YFP constructs with anti-GFP antibody (FIG. 1C).
To make MBP-fusions containing arrestin-2/3 elements, the cDNAs encoding arrestin fragments were subcloned into pMal-p2T (generous gift from Dr. Keiji Tanaka, Tokyo Institute of Medical Science) between Eco RI and Xho I sites in frame with MBP, as described^23. MBP-Arr3 (full-length arrestin-3) was created by subcloning the corresponding cDNA into pMal-p2T between Eco RI and Not I sites^23. All MBP-arrestin-3 fusion proteins contained the same […] (SEQ ID NO:29) linker between MBP and arrestin-3 or its fragments. […] Eluates were analyzed by SDS-PAGE and Western blotting.

[2] = target: T2, MKK4 (Homo sapiens, UniProt P45985); assay: MBP pull-down of purified MKK4; format: binding; details: for binding of MKK4 in MBP pull-down: purified GST-MKK4, peptide as MBP-fusion immobilized on amylose
T2 sequence (P45985 1-399): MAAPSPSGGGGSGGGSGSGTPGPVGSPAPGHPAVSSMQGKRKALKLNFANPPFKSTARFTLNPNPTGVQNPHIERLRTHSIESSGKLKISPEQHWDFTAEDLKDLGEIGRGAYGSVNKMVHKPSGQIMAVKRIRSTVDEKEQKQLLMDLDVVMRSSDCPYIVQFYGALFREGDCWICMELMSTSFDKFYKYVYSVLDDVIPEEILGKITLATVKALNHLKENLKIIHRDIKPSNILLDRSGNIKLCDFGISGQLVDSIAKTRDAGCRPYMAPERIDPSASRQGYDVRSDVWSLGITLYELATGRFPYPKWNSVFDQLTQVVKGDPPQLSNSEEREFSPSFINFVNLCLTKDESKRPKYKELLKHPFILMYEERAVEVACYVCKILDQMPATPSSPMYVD
Experimental: as §1
To make MBP-fusions containing arrestin-2/3 elements, the cDNAs encoding arrestin fragments were subcloned into pMal-p2T (generous gift from Dr. Keiji Tanaka, Tokyo Institute of Medical Science) between Eco RI and Xho I sites in frame with MBP, as described^23. MBP-Arr3 (full-length arrestin-3) was created by subcloning the corresponding cDNA into pMal-p2T between Eco RI and Not I sites^23. All MBP-arrestin-3 fusion proteins contained the same […] (SEQ ID NO:29) linker between MBP and arrestin-3 or its fragments. The MBP protein used as negative control was purified using empty pMal-p2T vector containing the same linker with 10 additional residues: […] (SEQ ID NO:30). MBP fusions were purified, as described^23. MBP pull-down was performed, as described^23. Briefly, Indicated MBP fusions (10-30 μg in 50 μL 20 mM Tris/150 mM NaCl) were immobilized on amylose resin (25 μL, 50% slurry, New England Biolabs) for 1 h at 4° C. with slight rotation. Purified, as described^40, MKK4/7 (10 μg in 50 μL 20 mM Tris/150 mM NaCl) were added to the immobilized MBP fusions and rotated gently for 2 h at 4° C. Samples were transferred to centrifuge filters (Durapore®-PVDF-0.65 μm), washed three times with 50 mM HEPES-Na, pH 7.3, 150 mM NaCl. The proteins were eluted by 100 μl of elution buffer (wash buffer containing 50 mM maltose) by gentle rotation for 5 min at 4° C. Eluates were analyzed by SDS-PAGE and Western blotting.

[3] = target: MKK7-JNK3 module (Homo sapiens, UniProt O14733+P53779); assay: In vitro phosphorylation of JNK3α2 by MKK7 (reconstituted module); format: biochemical
Experimental: Next, it was tested whether T1A acts as a scaffold facilitating signaling. To this end, experiments used purified proteins, because they provide the most definitive data supporting a direct interaction. As purified ASK1 is not available, MKK4-JNK3 and MKK7-JNK3 modules were reconstituted in the absence and presence of varying concentrations of synthetic purified T1A peptide and measured JNK3 phosphorylation (FIG. 2A). […] This dependence, where signaling is increased at lower scaffold concentrations and decreased at higher, was also found for scaffolding of these modules by full-length arrestin-3^20. It is believed to be a characteristic of simple scaffolds, which act by bringing the enzyme and substrate together, as lower scaffold concentrations make the formation of complete scaffold-enzyme-substrate ternary complexes likely, whereas higher concentrations increase the probability of formation of incomplete enzyme-scaffold and substrate-scaffold binary complexes, suppressing the signaling^25,26. […]
JNK3α2^20,23, and MKK4 and MKK7^17,20 were expressed in E. coli and purified as previously described^40. The effect of arrestin-3 and MBP-T1A on the phosphorylation of JNK3α2 by MKK7 or MKK4 was analyzed by an in vitro kinase assay, as described^19,20. […] Phosphorylated JNK3α2 was visualized by rabbit anti-phospho JNK antibody (Cell Signaling) and the level of JNK phosphorylation was quantified.

Sequence of MKK7-JNK3 module (P53779 whole entry, one chain of several): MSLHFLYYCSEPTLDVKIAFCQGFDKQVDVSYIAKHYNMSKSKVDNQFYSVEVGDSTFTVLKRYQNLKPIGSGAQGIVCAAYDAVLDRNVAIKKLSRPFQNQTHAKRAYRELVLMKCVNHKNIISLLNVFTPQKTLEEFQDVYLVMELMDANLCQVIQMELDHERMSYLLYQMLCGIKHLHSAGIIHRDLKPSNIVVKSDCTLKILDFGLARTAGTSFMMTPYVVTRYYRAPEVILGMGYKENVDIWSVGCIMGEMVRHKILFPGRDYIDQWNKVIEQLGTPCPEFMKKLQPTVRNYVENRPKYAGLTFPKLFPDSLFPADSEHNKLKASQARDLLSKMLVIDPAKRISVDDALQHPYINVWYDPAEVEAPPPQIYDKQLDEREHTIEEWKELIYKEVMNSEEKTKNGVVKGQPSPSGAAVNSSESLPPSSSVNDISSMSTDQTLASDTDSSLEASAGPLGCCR

Row | binding of MKK7 in MBP pull-down [1] | optimal concentration relative to full-length arrestin-3, MKK7-JNK3 module [3] | JNK3 phosphorylation level by MKK7 as a function of T1A concentration ([3]; 50 nM MKK7, 1 μM JNK3α2, 10 sec, 30° C., synthetic purified peptide) | Substance | interaction with MKK4 compared with MKK7 ([2]; MBP pull-down, purified proteins) | binding of MKK4 in MBP pull-down [2]
1 | binds both MKKs | ~10 times lower | bell-shaped curves | MGEKPGTRVFKKSSPNCKLTVYLGK (bovine) [T1A, first 25 residues of arrestin-3] | stronger interaction with MKK4 than with MKK7 | binds both MKKs; also recorded: comparably bind MKK4
2 | less robust interaction | – | – | MGDK-GTRVFKKASPNGKLTVYLGK (MGDKGTRVFKKASPNGKLTVYLGK; N-terminal MGDK; bovine) [B1A, homologous N-terminal peptide from arrestin-2, negative control] | – | comparably bind MKK4
